These results are taken from patent US20210122826A1 (MIT, published 2021).

Changes are numbered by the printed parent chain.

B1: KW17.3.4 (antibody, V domains shown)
VH: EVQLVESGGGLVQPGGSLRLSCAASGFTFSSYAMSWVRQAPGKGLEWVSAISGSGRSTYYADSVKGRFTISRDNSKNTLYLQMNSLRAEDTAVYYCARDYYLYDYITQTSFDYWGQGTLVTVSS
VL: QSVLTQPPSVSGAPGQRVTISCTGSSSNIGAGYDVHWYQQLPGTAPKLLIYGNSNRPSGVPDRFSGSQSGTSASLAITGLQAEDEADYYCQSYNSGHTVFGGGTQLTVL
B2: KM12.2.3 (antibody, human IgG1, V domains shown)
VH: EVQLVESGGGLVQPGGSLRLSCAASGFTFSSYAMSWIRQAPGKGLEWVSAISGSGGSIYYADSVKGRFTISRDNSKNTLYLQMNSLRAEDTAVYYCARGYSDSYFYGPYYTFDYWGQGTLVTVSS
VL: DIQMTQSPSSLSASVGDRVTITCRASQGISSYLNWYQQKPGKAPKLLIYAASSLQSGVSSRFSGSGSGTDFTLTISSLQPEDFATYYCQQSYNTPLTFGQGTKVEIK
B3: KW9.3.3 (antibody, V domains shown)
VH: EVQLVESGGGLVQPGGSLRLSCAASGFTFSSYAMSWVRQAPGKGLEWVSAISGSGGRTYYADSVKGRFTISRDNSKNTLYLQMNSLRAEDTAMYYCARGPGYMYLYGDSFFEYWGQGTLVTVSS
VL: B2 VL with T5A, S59P, S67Y, N93S
B4: KM12.4.7 (antibody, V domains shown)
VH: B2 VH with S21P, N84D
VL: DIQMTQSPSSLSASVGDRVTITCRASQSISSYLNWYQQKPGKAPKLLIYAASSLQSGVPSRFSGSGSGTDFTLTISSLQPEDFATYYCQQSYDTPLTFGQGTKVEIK

One test addresses T1, Human Clec5A (human, UniProt Q9NY25 1-188).
T1 construct: also called hClec5A
T1 sequence: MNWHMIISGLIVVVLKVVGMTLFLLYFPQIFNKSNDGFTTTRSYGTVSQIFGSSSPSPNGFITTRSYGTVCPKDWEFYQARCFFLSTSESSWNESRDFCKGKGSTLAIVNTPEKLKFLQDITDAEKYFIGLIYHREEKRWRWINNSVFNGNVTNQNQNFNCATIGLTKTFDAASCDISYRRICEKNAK
As to the kind of experiment: flow, Jurkat, 100 nM Ab.
Consider B1, for which the “MFI normalized to WT” value is 1.12.

For the molecule B2, the “MFI normalized to WT” value is 1.41.

Regarding B3, the “MFI normalized to WT” value was 0.93.

As for B4, the “MFI normalized to WT” value worked out at 1.31.

The next test deals with T2, Human KLRG1 (human, UniProt Q96E93 1-195).
T2 construct: also called hKLRG1
T2 sequence: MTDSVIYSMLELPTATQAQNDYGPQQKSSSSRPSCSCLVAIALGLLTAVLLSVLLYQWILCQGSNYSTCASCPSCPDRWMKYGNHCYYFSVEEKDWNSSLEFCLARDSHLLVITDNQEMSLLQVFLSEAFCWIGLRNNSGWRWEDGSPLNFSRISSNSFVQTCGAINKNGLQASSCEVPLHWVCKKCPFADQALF
As to the kind of experiment: flow, Jurkat, 100 nM Ab.
Consider B1, for which the “MFI normalized to WT” value came out at 1.08.

On to B2, for which the “MFI normalized to WT” value was determined as 1.42.

In the case of B3, the “MFI normalized to WT” value stood at 0.93.

As to B4, the “MFI normalized to WT” value came out at 1.25.

The target in another test is T3, Human KLRF2 (human, UniProt D3W0D1 1-207).
T3 construct: also called hKLRF2
T3 sequence: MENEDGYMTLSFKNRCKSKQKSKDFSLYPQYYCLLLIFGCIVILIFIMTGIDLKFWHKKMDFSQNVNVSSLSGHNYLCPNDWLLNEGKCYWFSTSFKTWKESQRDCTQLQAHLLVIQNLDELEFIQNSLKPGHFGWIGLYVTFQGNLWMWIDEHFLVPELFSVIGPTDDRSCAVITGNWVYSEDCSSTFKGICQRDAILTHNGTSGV
As to the kind of experiment: flow, Jurkat, 100 nM Ab.
As for B1, the “MFI normalized to WT” value turned out to be 1.03.

Take B2: the “MFI normalized to WT” value is 1.37.

Turning to B3, the “MFI normalized to WT” value amounted to 0.9.

For the molecule B4, the “MFI normalized to WT” value stood at 1.13.

Another test deals with T4, Human Clec10A (human, UniProt Q8IUN9 1-316).
T4 construct: also called hClec10A
T4 sequence: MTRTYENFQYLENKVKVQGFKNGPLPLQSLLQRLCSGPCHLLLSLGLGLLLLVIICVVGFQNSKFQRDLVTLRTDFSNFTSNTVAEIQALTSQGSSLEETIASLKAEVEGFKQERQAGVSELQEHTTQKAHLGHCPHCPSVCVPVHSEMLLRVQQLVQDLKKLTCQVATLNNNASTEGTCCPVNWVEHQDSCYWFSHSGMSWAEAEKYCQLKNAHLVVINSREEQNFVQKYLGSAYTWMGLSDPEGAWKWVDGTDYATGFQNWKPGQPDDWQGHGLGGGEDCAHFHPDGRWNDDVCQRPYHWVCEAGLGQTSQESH
As to the kind of experiment: flow, Jurkat.
As to B1, the binding result is on record as “no binding (tested: 100 nM)”.

In the case of B2, the binding result is reported as “no binding (tested: 100 nM)”.

For B3, the binding result is recorded as “no binding (tested: 100 nM)”.

As for B4, the binding result is given as “no binding (tested: 100 nM)”.

Another test deals with T1, Human Clec5A. As to the kind of experiment: flow, Jurkat.
As to B1, the binding result is “no binding (tested: 100 nM)”.

On to B2, for which the binding result is on record as “no binding (tested: 100 nM)”.

In the case of B3, the binding result was “no binding (tested: 100 nM)”.

On to B4, for which the binding result is recorded as “no binding (tested: 100 nM)”.

The next test has as its target T5, Human Clec7A (human, UniProt Q9BXN2 1-247).
T5 construct: also called hClec7A
T5 sequence: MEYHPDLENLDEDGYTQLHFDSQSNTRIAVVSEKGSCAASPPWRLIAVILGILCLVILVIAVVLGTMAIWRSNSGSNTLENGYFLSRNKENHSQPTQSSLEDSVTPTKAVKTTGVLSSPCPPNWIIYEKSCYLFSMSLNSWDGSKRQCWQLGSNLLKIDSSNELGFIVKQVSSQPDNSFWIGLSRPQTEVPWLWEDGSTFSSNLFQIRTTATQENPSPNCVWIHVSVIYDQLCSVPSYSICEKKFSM
The test is described as follows: flow, Jurkat.
For B1, the binding result is recorded as “no binding (tested: 100 nM)”.

B2: the binding result is recorded as “no binding (tested: 100 nM)”.

Turning to B3, the binding result was “no binding (tested: 100 nM)”.

Consider B4, for which the binding result is given as “no binding (tested: 100 nM)”.

The target in another test is T6, Human Clec9A (human, UniProt Q6UXN8 1-241).
T6 construct: also called hClec9A
T6 sequence (Q6UXN8 whole entry): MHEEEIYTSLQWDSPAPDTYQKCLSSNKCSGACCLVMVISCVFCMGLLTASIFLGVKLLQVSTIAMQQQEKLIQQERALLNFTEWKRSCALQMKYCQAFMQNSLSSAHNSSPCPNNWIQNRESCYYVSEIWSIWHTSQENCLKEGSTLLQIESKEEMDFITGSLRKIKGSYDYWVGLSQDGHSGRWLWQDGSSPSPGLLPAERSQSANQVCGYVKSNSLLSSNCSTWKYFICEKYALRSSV
As to the kind of experiment: flow, Jurkat.
For the molecule B1, the binding result is recorded as “no binding (tested: 100 nM)”.

With B2, the binding result is recorded as “no binding (tested: 100 nM)”.

As for B3, the binding result is given as “no binding (tested: 100 nM)”.

Consider B4, for which the binding result is given as “no binding (tested: 100 nM)”.

For a further test, the target named is T2, Human KLRG1. As to the kind of experiment: flow, Jurkat.
In the case of B1, the binding result is “no binding (tested: 100 nM)”.

Consider B2, for which the binding result is listed as “no binding (tested: 100 nM)”.

For B3, the binding result is given as “no binding (tested: 100 nM)”.

As for B4, the binding result is “no binding (tested: 100 nM)”.

For the next test, the target named is T7, Human OLR1 (human, UniProt P78380 1-273).
T7 construct: also called hOLR1
The test is described as follows: flow, Jurkat.
In the case of B1, the binding result was “no binding (tested: 100 nM)”.

Take B2: the binding result is “no binding (tested: 100 nM)”.

For the molecule B3, the binding result was “no binding (tested: 100 nM)”.

For the molecule B4, the binding result is “no binding (tested: 100 nM)”.

Another test deals with T8, Human Clec4E (human, UniProt Q9ULY5 1-219).
T8 construct: also called hClec4E
T8 sequence: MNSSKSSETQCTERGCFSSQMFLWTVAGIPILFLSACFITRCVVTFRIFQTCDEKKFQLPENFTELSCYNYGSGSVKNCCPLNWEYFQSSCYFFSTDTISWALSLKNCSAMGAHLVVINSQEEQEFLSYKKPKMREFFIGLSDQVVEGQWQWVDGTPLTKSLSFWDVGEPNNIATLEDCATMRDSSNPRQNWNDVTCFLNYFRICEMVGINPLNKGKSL
As to the kind of experiment: flow, Jurkat.
Turning to B1, the binding result is recorded as “no binding (tested: 100 nM)”.

As to B2, the binding result was “no binding (tested: 100 nM)”.

As for B3, the binding result is reported as “no binding (tested: 100 nM)”.

In the case of B4, the binding result was “no binding (tested: 100 nM)”.

The target in a further test is T9, Human Clec12B (human, UniProt Q2HXU8 1-276).
T9 construct: also called hClec12B
T9 sequence: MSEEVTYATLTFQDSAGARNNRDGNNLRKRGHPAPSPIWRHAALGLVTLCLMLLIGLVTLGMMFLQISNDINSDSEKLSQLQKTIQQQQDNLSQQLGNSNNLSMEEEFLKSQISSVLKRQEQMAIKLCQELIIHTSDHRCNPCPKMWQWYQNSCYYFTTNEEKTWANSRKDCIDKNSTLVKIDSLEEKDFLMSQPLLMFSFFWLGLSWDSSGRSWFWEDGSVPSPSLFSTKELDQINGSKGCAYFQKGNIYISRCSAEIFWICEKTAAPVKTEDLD
As to the kind of experiment: flow, Jurkat.
For B1, the binding result is on record as “no binding (tested: 100 nM)”.

As to B2, the binding result is “no binding (tested: 100 nM)”.

On to B3, for which the binding result is “no binding (tested: 100 nM)”.

Regarding B4, the binding result is given as “no binding (tested: 100 nM)”.

The next test deals with T10, Human CD94 (human, UniProt Q13241 1-179).
T10 construct: also called hCD94
T10 sequence: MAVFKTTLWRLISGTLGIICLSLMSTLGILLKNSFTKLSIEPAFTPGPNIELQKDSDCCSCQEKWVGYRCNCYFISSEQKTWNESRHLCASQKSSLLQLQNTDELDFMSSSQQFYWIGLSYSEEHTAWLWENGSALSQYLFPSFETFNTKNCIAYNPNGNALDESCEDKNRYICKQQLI
As to the kind of experiment: flow, Jurkat.
For B1, the binding result is reported as “no binding (tested: 100 nM)”.

Regarding B2, the binding result was “no binding (tested: 100 nM)”.

On to B3, for which the binding result is listed as “no binding (tested: 100 nM)”.

B4: the binding result is listed as “no binding (tested: 100 nM)”.

The target in another test is T11, Human CD209 (human, UniProt Q9NNX6 1-404).
T11 construct: also called hCD209
T11 sequence: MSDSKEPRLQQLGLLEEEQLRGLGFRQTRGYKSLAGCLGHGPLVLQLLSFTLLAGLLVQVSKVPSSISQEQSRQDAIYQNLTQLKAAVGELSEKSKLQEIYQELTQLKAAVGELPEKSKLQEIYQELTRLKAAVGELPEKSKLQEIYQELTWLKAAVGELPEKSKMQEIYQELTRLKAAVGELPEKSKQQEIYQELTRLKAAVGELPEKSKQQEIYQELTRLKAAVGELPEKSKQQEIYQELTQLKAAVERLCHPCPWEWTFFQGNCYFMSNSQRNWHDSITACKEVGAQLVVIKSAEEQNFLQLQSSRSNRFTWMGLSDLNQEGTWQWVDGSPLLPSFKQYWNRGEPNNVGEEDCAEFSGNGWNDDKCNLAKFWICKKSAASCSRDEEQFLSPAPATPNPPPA
As to the kind of experiment: flow, Jurkat.
B1: the binding result is “no binding (tested: 100 nM)”.

Consider B2, for which the binding result is on record as “no binding (tested: 100 nM)”.

Turning to B3, the binding result is “no binding (tested: 100 nM)”.

In the case of B4, the binding result is recorded as “no binding (tested: 100 nM)”.
